The text below walks through data of the DeepSol protein solubility set.

A short description of the data set: soluble on expression in E. coli; label from the status in PepcDB or PDB records.
Consider “MGSDKIHHHHHHMILDPILDMFRGKAVTIPPLDGAFRPNTRLDDAPTFAELTEPDNLLADGGRLLATSGNAIYSLAAGAEPKVIETFPSPITAQALAPSGDLTVALESGKLLTSGKEVSLPADLSCITALAYAEDGTLWLANGSAEHAPSQWAADLMKKGASGSLWKRDATGGAFRKVAGALAFPYGLLPLGGDVLVSESWRHQLIRFDGATGNRSTVLTHLPGYPARLASAGDGGAWLALFAPRNRLIEFVLQETHYRQDMIDQVPPAYWIAPALASNRSFLEPLQCGGIRTMGIHKPWSPSRSYGLVVRLDARMQPQFSLHSRANGTRHGICSVVEKAGRLFIASKGGDCVLDAGGF”, for which the “soluble on expression in E. coli” value was “not soluble”. As for “MGSDKIHHHHHHMILDTAPHISSVGQVKEFFLARQPILDQNQNLIAYELLFRRAGVRAPVSAEDTRGAASIIAHTSELGIENVTGSALGFFNVNSTLLMGDLVNFLPAEKVVFEFPQTDKITPELVRRVAELAKAGYRFALDDVITLSEYIKPLLPFVEIIKIDTSVMTYADLAMLVRQFKQARKVLLADKVETLEQFQNCHELGFDYYQGYYFAKPALLSGKKLATSQLAIMELMTLVARDADTIEIEQRIKKEVSLCLSLLRLVNTPAMGVTKSIHSLSEALMVLGRRQLQRWLQIQIYVGPDPQIQFGSPLLLLAATRGKLLELVAQKLQPANRSMADIAFTVGILSLLDALFGQHMERILRQIVLSEEITEALLYRTGFYGDLLKLAEYLEKPGEAGRLLVPLLARLGLPIEELYPFQLEAFEWSNSLLPTL”, the “soluble on expression in E. coli” value was “not soluble”. As for “MGSDKIHHHHHHMILKHRRPNIYGLMNKEGNKEEVEMIINELLNRDYKITFLPSGSSAVFLSMWIAKIYSNEISIPDMGGWQGFLKFPKLLNLKNNMIETNLGIIDLEKLDESLKENSSLILTSLAGYLAPQPLKEIKKLCEEREVLFIEDISGKIGGDCGYGDIVVCSTGTPKILNCEYGGFLGISKEIEEKLGNALNDIKILSKTYKTINYFGLLKEELLNAKKTYKKYVEASKIIKDEIENAYFREFEGISVFIECDNPKNISKKINSLIKLDNRKSITTICPNYDRILKNGIVFETKKIDISELNREVINEIIIALSSIL”, the “soluble on expression in E. coli” value was “not soluble”. Under “MGSDKIHHHHHHMIMNNHRMLPDQDAWEPWSPAELSRRLSGISRPWCIVGGWALDLWHGSTMREHDDLEFTVLREDLEIFRRELSEMEFYTVNDGVLERLPPDRQPASEIFQIWCFDRTAKCWRVDMMIEPGTDDTWAYKRNPEITRPRTDMVALTADGIPYLNPSAVLLFKAKHRRPKDEQDFVNAHPKLLLSERRWLRNCLELLHPGHEWAQAL” stands “not soluble”.

As for “MGSDKIHHHHHHMIMSEKSIVQEARDIQLAMELINLGARLQMLESETQLSRGRLIRLYKELRGSPPPKGMLPFSTDWFMTWEQNIHASMFCNAWQFLLKTGLCSGVDAVIKAYRLYLEQCPQPPEGPLLALTRAWTLVRFVESGLLELSSCNCCGGNFITHAHQPVGSFACSLCQPPSRAVKRRKLSRDAADIIPQLLDEQIEQAV”, the “soluble on expression in E. coli” value is recorded as “not soluble”. Under “MGSDKIHHHHHHMINCIIVEDAPLAVDKLKNFISKVPLLDLAGTFDNGLDAFDFLQSNTIDLLFLDIQMEQFTGLQLLQALHTRPHIIIVSAYGEYAVQGFEYDVTDYLLKPYSFERFLKAVNKVQTEMASNPPAQPLPKDYIFLKTEYRMVRINLCDILYIEGKGAYLHVITDTTRIMTLLSFKEIESLLPAKQFIRIHKSYLIAINKIDNIERNVVKIANMRIPIGKSYLKDFYLRLQ” stands “not soluble”. Under “MGSDKIHHHHHHMINELKKTKSRSEIKREQILHSAIELFCVQGFPNTSMDEVAKLAGVSKQTVYAHFGSKDDLFVAAIESRCIAHQLTGDLLFDPKHPEVSIMRFSQQFGEMIVSHETMAVFKTCVAQAESHPELPRLFFNAGPKHVLGLLSGFLQLVDKQGGYHFPKPHDSAIRLCLMLFGELKLRLELGLEVEELRLSRDAYIEETAQMFLRAHRV” stands “not soluble”.

For “MGSDKIHHHHHHMINHHPKFELIQAFVNGDLPASLSAGIAIHADMCPVCQQTIAQFTEQVAENSFEEEYLDRFIIDDNEALEAIATIDFDHMIDNIVESSDIAVVVPKVEKTVSFNDTTYTLPAALNSMEMGKHAQIGKLTRARIQLNENEIHSSLLHIQPGGGVPEHTHKGFELTVLLAGSFHDESGEYVKGDFIMLDSSHQHHPISSNGCLCYTVANDALHFTHGINKLLNPIGSFIY”, the “soluble on expression in E. coli” value was “not soluble”. As to “MGSDKIHHHHHHMIPLEHRYAQIEKAITYIDENFRAHPSVDEIAQNVGMSKYHFIRVFKEYAGVTPKQFLHCVTLNYAKEHIKESRSILESSLDIGLSSSSRLHELFVNLIGVTPREWRERGRGVLVTYGFGQTPFGEALIGFTDKGICYLGLMSDNKLEILGRFYELWGEAILEYDEKAAQKYLGYIFDRGEEGSPWNLGTNSQVNAWKALINLSRHLEDRVEGLIPCCGIISRSGAMSGHRWRIERGAALSLLDDIREKGSFGFSDNIDL”, the “soluble on expression in E. coli” value was “not soluble”. For the sequence “MGSDKIHHHHHHMIQSVRIKNFKNFKNTKIDGFTKLNIITGQNNAGKSNLLEALYYLVGKSMHPCTNVLEIYDNIRKEPLTSESKSLMFYGLDTKEEIQIVTTLDNNQTLDLQIKFIASENQKVIESQIIPTAEQTQMSSQLNFTLKKNNEEIYNDHLNIAKVPNFPPIPNQSGYNRQFKNFDSNQLQKLLPFESAVIIPSDVVYRQAHMIQAVSKICSNNQLEEELNKHLNQFDNNIQAISFNTNNQLKLKVKDIKEKVPLSVFGDGLKKYLHIVSAFMADNAKTIYIDEVENGLHFSRMRLLLKNTIDFINNNKDGNLQVFMTTHSQEFIEILDQVIREKDFAHQTKLFCLKQDDQYVIPRTYYGENLEYYFENEENLFG”, the “soluble on expression in E. coli” value is reported as “not soluble”. In the case of “MGSDKIHHHHHHMIVNQANLQGIYKSFNTIFNQAFDAAPSQWPLVAMQVPSTGRSVDYKWLGDFPMMREWLGDRVLKDLSAFKYEITNKDYESTIEVDRNDIDDDQIGVYTPMIQGLAQAAKVHPDILVFALLKAGFDTGCFDGQYFFDSDHSVNGASVSNTGGGDGTPWYLLDLSRPIKPIVLQIRKRPQFVAMDKPDDENVFMRKKFRYGVDDRKNVGYGLWQLAYGSKQTLDATNYAAARAAMMAFTNDEGVPLGITPTHLVVPPTLESNGRTVVEAQFDANGASNVWYNTAKLVVVPWLA”, the “soluble on expression in E. coli” value is “not soluble”. Under “MGSDKIHHHHHHMIVVLKPGSTEEDIRKVVKLAESYNLKCHISKGQERTVIGIIGDDRYVVADKFESLDCVESVVRVLKPYKLVSREFHPEDTVIDLGDVKIGNGYFTIIAGPCSVEGREMLMETAHFLSELGVKVLRGGAYKPRTSPYSFQGLGEKGLEYLREAADKYGMYVVTEALGEDDLPKVAEYADIIQIGARNAQNFRLLSKAGSYNKPVLLKRGFMNTIEEFLLSAEYIANSGNTKIILCERGIRTFEKATRNTLDISAVPIIRKESHLPILVDPSHSGGRRDLVIPLSRAAIAVGAHGIIVEVHPEPEKALSDGKQSLDFELFKELVQEMKKLADALGVKVN” stands “soluble”; under “MGSDKIHHHHHHMIYDMSGIYLSSLTGIRNNSSSSSNSLDKEAFLRLLLQELEMQDPLEPMETKDMISQLSQLTSLEQITNLTSAVKDFVEAQTSVSPAQLASLIGKYVVVRNNTVNLVGGQSDSIIFNVDEDAHVVVQILDENGKLVRTEDLGTVQVGVHAWQWDGRDDNGISVEDGSYTYRVYKLTSSGLEEIGGMEGGVVEAVQIKDGKGFVLVNGSLYPVDSILEISQEGDA”, “not soluble”; under “MGSDKIHHHHHHMKAGISLSLSLALSCSAVAQGQKISVPPVFNIFELVIRQDKNNAYDSLAEKNITASVTGEPGTLAMYSAKKKTNPSVTYMYEIYADSDAYDKHLNSTSYKEFLRNSPDILETSQTRRIDVIPQFLADKKIVQNDSTINNFVIVDVKPELGQAFRHVVLPEMAQSIEREEGVLAMYAAIDKANRNRWYFYEIYASENAYQAHRLTPHFKAYINQTAEMTTYKEAIDIKPGLLMNKGGMRYENE”, “not soluble”. Take “MGSDKIHHHHHHMKALVEDDLFSKIGLDDVNSGVYDGEWVKPSGKMLTVKSPIDGSEVAKISLATRADYDRLVSRAIEEFKKWRMIPAPKRGLIIREIGDELRKEKKNLGKIVTIEAGKTPSEGEGEIQEMIDISDLALGLSRQLYGLTIASERPYHRMYEQWVPLGPVAVITSFNFPASVWSWNAFIAAVDGDVVIWKPSSKAALTAVAVMKVIERVLKRNNAPNIFFLMVSSGSEGGDWITNDPRIPLVSFTGSVPVGKKISENVAKRLGKSILELGGNNGAIVSDKADIDLALRGVVFGALATAGQRCTTTRRVIVQEKIYDQFLEKLKNAYSTIKVGDPREKGVLVGPLIDEDAVKDYEHAIDLAIKQGGKLIFGGKRITIKGLEGGHYVMPTIIEAKPDMPIVKEETFASILYVMKYRTIEEAIEIHNSVPQGLSSSIFTTDLREEEAFLSPYGSDCGLANVNTSTAGAEIGGAFGGEKDTGGGRESGSDAWKYYMRRQTVTKNWGQTLPLAQDVVFEF”: the “soluble on expression in E. coli” value is given as “not soluble”.

Regarding “MGSDKIHHHHHHMKCVVCGKNEAVEHGVCSQCLFDRANIENIGNVNIAICPKCGSVRIGKKWYREDYADHLLPLIMDEVKCSDPEAKISGDPKSVYFDESNRNLVLKVNITRDHMDPKVQTVSVPYSVNYISCPTCNKLTGSYFEATIQLRTVSTKYDEILSEVLDSIEKIMEKRRKMDASSFISKIERKPEGVDIYLGKKGDGDLVSSFILDHYFATLIVSKSLAGVKEGRKFFRFTYSLRILDAPEGAIVSVDKRKYILTAIRNRHIDVIDVETEERGRINRNVFFSNDGKIVTKEPQVKNFIVISRTEDESQIMDSQTFKIITIKGRAEGNEIRVFTYRGKYFI”, the “soluble on expression in E. coli” value is “not soluble”.

In the case of “MGSDKIHHHHHHMKEIPGLVKKAQIDKHDLTWLEESEVDDRVQQRRYGTTQAAELAGISVGLLYAAEQDGRLPEPEYRSDTARKVRAGYTINHINHMQRVFNTAPRKPEGSSAAIAGILNLKGGSQKTTTCHLFSQYLAIRGYRCLLLDTDPQGSLSFYFGKRPDDNVHYENTVAPFFLEDDEALVEAGHPEGASRSLHYAIQKTYWDNIDIIPACLQNLNIDLLMPSVMNEANVPMLDRIMKLRNGLLEVGENYDFIIIDGTPSLNLSTLNVVSACDVCFVPTPAAMLDFASTLQFAGLVAETAEMYKQEKMYPNIPDMRYFITKYSGSSYAHFMGQIIRRVFTVERGDVLSTEAHASDEIGKANTSTYSIYEKNPAESDNRKRLKKTIEMFDRLFEEMHDAVWETCFEDALRSSHLDKIDEIMSSADLARDDLKRANRLSDKEA”, the “soluble on expression in E. coli” value was “not soluble”. Under “MGSDKIHHHHHHMKEIRIILMGTGNVGLNVLRIIDASNRRRSAFSIKVVGVSDSRSYASGRNLDISSIISNKEKTGRISDRAFSGPEDLMGEAADLLVDCTPASRDGVREYSLYRMAFESGMNVVTANKSGLANKWHDIMDSANQNSKYIRYEATVAGGVPLFSVLDYSILPSKVKRFRGIVSSTINYVIRNMANGRSLRDVVDDAIKKGIAESNPQDDLNGLDAARKSVILVNHIFGTEYTLNDVEYSGVDERSYNANDRLVTEVYVDDRRPVAVSRIISLNKDDFLMSIGMDGLGYQIETDSNGTVNVSDIYDGPYETAGAVVNDILLLSKVQK” stands “not soluble”. Under “MGSDKIHHHHHHMKETDNLLRENSHDRDISEIVATITALDHPSPSLLRFTAFVPGSANNPVWAEANVAIRLYLSEEFDDATRVYTVRSFDAATESIVVDVVQHHHESPMMRWSDTVKINDTLVLTGPRPHFVIPEGEQAALFLDDTAIPALAAILDQWPTDLRGKGWVVTDDPAAFDELPSIDGLELNLLAPGSDPTVQPLAQQAYDLENPETYVVWAAGERDEIKSIRRHFRKQVGLEKDAVAVFGYWKYNTTNTQIDAVRKENYMKMLSEGLQLENFDDLSLEI” stands “not soluble”.
